± gives the standard deviation of the averaged measurements.
Legend:
hTERT-HMEC = assay: percentage of EdU-negative (G0-arrested) nuclei per well, 72 h; higher = more G0 arrest; conditions: reference: sequence is the full UniProt precursor, the tested protein was the secreted form or ectodomain
MCF7 = assay: as above; conditions: reference: sequence is the full UniProt precursor, the tested protein was the secreted form or ectodomain
[1] = protein concentration 0.0182675 µM
[2] = protein concentration 0.182675 µM
[3] = protein concentration 0.01051 µM
[4] = protein concentration 0.1051 µM
[5] = protein concentration 0.0325714 µM
[6] = protein concentration 0.325714 µM
[7] = protein concentration 0.0225 µM
[8] = protein concentration 0.0171429 µM
[9] = protein concentration 0.171429 µM
[10] = protein concentration 0.020715 µM
[11] = protein concentration 0.20715 µM
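Further: secreted proteins added to cultured cells, EdU pulse at the end, nuclei found by Hoechst imaging, EdU status from nuclear versus surrounding ring intensity ratio, PBS as neutral control.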

MLKALFLTMLTLALVKSQDTEETITYTQCTDGYEWDPVRQQCKDIDECDIVPDACKGGMKCVNHYGGYLCLPKTAQIIVNNEQPQQETQPAEGTSGATTGVVAASSMATSGVLPGGGFVASAAAVAGPEMQTGRNNFVIRRNPADPQRIPSNPSHRIQCAAGYEQSEHNVCQDIDECTAGTHNCRADQVCINLRGSFACQCPPGYQKRGEQCVDIDECTIPPYCHQRCVNTPGSFYCQCSPGFQLAANNYTCVDINECDASNQCAQQCYNILGSFICQCNQGYELSSDRLNCEDIDECRTSSYLCQYQCVNEPGKFSCMCPQGYQVVRSRTCQDINECETTNECREDEMCWNYHGGFRCYPRNPCQDPYILTPENRCVCPVSNAMCRELPQSIVYKYMSIRSDRSVPSDIFQIQATTIYANTINTFRIKSGNENGEFYLRQTSPVSAMLVLVKSLSGPREHIVDLEMLTVSSIGTFRTSSVLRLTIIVGPFSF
percentage of EdU-negative (hTERT-HMEC; [1]): 4.75 ± 0.46% | percentage of EdU-negative (hTERT-HMEC; [2]): 15.7 ± 1.1% | percentage of EdU-negative (MCF7; [1]): 28 ± 2.2% | percentage of EdU-negative (MCF7; [2]): 29.1 ± 1.9%

MLKKPLSAVTWLCIFIVAFVSHPAWLQKLSKHKTPAQPQLKAANCCEEVKELKAQVANLSSLLSELNKKQERDWVSVVMQVMELESNSKRMESRLTDAESKYSEMNNQIDIMQLQAAQTVTQTSADAIYDCSSLYQKNYRISGVYKLPPDDFLGSPELEVFCDMETSGGGWTIIQRRKSGLVSFYRDWKQYKQGFGSIRGDFWLGNEHIHRLSRQPTRLRVEMEDWEGNLRYAEYSHFVLGNELNSYRLFLGNYTGNVGNDALQYHNNTAFSTKDKDNDNCLDKCAQLRKGGYWYNCCTDSNLNGVYYRLGEHNKHLDGITWYGWHGSTYSLKRVEMKIRPEDFKP
percentage of EdU-negative (hTERT-HMEC; [3]): 4.85 ± 0.3% | percentage of EdU-negative (hTERT-HMEC; [4]): 5.52 ± 0.31% | percentage of EdU-negative (MCF7; [3]): 24.6 ± 2.7% | percentage of EdU-negative (MCF7; [4]): 25.2 ± 0.9%

MLKPSLPFTSLLFLQLPLLGVGLNTTILTPNGNEDTTADFFLTTMPTDSLSVSTLPLPEVQCFVFNVEYMNCTWNSSSEPQPTNLTLHYWYKNSDNDKVQKCSHYLFSEEITSGCQLQKKEIHLYQTFVVQLQDPREPRRQATQMLKLQNLVIPWAPENLTLHKLSESQLELNWNNRFLNHCLEHLVQYRTDWDHSWTEQSVDYRHKFSLPSVDGQKRYTFRVRSRFNPLCGSAQHWSEWSHPIHWGSNTSKENPFLFALEAVVISVGSMGLIISLLCVYFWLERTMPRIPTLKNLEDLVTEYHGNFSAWSGVSKGLAESLQPDYSERLCLVSEIPPKGGALGEGPGASPCNQHSPYWAPPCYTLKPET
percentage of EdU-negative (hTERT-HMEC; [5]): 5.08 ± 0.64% | percentage of EdU-negative (hTERT-HMEC; [6]): 5.6 ± 1.3% | percentage of EdU-negative (MCF7; [5]): 24.7 ± 0.8% | percentage of EdU-negative (MCF7; [6]): 26.37 ± 0.19%

MLLAWVQAFLVSNMLLAEAYGSGGCFWDNGHLYREDQTSPAPGLRCLNWLDAQSGLASAPVSGAGNHSYCRNPDEDPRGPWCYVSGEAGVPEKRPCEDLRCPETTSQALPAFTTEIQEASEGPGADEVQVFAPANALPARSEAAAVQPVIGISQRVRMNSKEKKDLGTLGYVLGITMMVIIIAIGAGIILGYSYKRGKDLKEQHDQKVCEREMQRITLPLSAFTNPTCEIVDEKTVVVHTSQTPVDPQEGTTPLMGQAGTPGA [Q96FE7]
percentage of EdU-negative (hTERT-HMEC; [7]): 4.79 ± 0.62% | percentage of EdU-negative (hTERT-HMEC; protein concentration 0.225 µM): 5.22 ± 0.39% | percentage of EdU-negative (MCF7; [7]): 24.9 ± 2% | percentage of EdU-negative (MCF7; protein concentration 0.225 µM): 25.1 ± 0.47%

MLLEPGRGCCALAILLAIVDIQSGGCINITSSASQEGTRLNLICTVWHKKEEAEGFVVFLCKDRSGDCSPETSLKQLRLKRDPGIDGVGEISSQLMFTISQVTPLHSGTYQCCARSQKSGIRLQGHFFSILFTETGNYTVTGLKQRQHLEFSHNEGTLSSGFLQEKVWVMLVTSLVALQAL
percentage of EdU-negative (hTERT-HMEC; [7]): 4.71 ± 0.094% | percentage of EdU-negative (hTERT-HMEC; protein concentration 0.225 µM): 5.62 ± 0.37% | percentage of EdU-negative (MCF7; [7]): 24.09 ± 0.069% | percentage of EdU-negative (MCF7; protein concentration 0.225 µM): 28.4 ± 2.2%

MLLFLLSALVLLTQPLGYLEAEMKTYSHRTMPSACTLVMCSSVESGLPGRDGRDGREGPRGEKGDPGLPGAAGQAGMPGQAGPVGPKGDNGSVGEPGPKGDTGPSGPPGPPGVPGPAGREGPLGKQGNIGPQGKPGPKGEAGPKGEVGAPGMQGSAGARGLAGPKGERGVPGERGVPGNTGAAGSAGAMGPQGSPGARGPPGLKGDKGIPGDKGAKGESGLPDVASLRQQVEALQGQVQHLQAAFSQYKKVELFPNGQSVGEKIFKTAGFVKPFTEAQLLCTQAGGQLASPRSAAENAALQQLVVAKNEAAFLSMTDSKTEGKFTYPTGESLVYSNWAPGEPNDDGGSEDCVEIFTNGKWNDRACGEKRLVVCEF
percentage of EdU-negative (hTERT-HMEC; [8]): 4.51 ± 0.51% | percentage of EdU-negative (hTERT-HMEC; [9]): 5.78 ± 0.29% | percentage of EdU-negative (MCF7; [8]): 23.4 ± 1.8% | percentage of EdU-negative (MCF7; [9]): 25.14 ± 0.067%

MLLKTVLLLGHVAQVLMLDNGLLQTPPMGWLAWERFRCNINCDEDPKNCISEQLFMEMADRMAQDGWRDMGYTYLNIDDCWIGGRDASGRLMPDPKRFPHGIPFLADYVHSLGLKLGIYADMGNFTCMGYPGTTLDKVVQDAQTFAEWKVDMLKLDGCFSTPEERAQGYPKMAAALNATGRPIAFSCSWPAYEGGLPPRVNYSLLADICNLWRNYDDIQDSWWSVLSILNWFVEHQDILQPVAGPGHWNDPDMLLIGNFGLSLEQSRAQMALWTVLAAPLLMSTDLRTISAQNMDILQNPLMIKINQDPLGIQGRRIHKEKSLIEVYMRPLSNKASALVFFSCRTDMPYRYHSSLGQLNFTGSVIYEAQDVYSGDIISGLRDETNFTVIINPSGVVMWYLYPIKNLEMSQQ
percentage of EdU-negative (hTERT-HMEC; [10]): 5.62 ± 0.13% | percentage of EdU-negative (hTERT-HMEC; [11]): 6.091 ± 0.044% | percentage of EdU-negative (MCF7; [10]): 27.8 ± 0.95% | percentage of EdU-negative (MCF7; [11]): 26.5 ± 1.4%

— the supplement of paper PMC11316812
